The values that follow come from publication PMC5491494.

In the assay the target is hnRNPA1, endogenous, P09651. Description: cross-linking; DSG cross-linking, sample not named in the text (Supplementary Fig. 2a); nucleo-cytoplasmic fractionation; immunoblot, 4–12% denaturing polyacrylamide gels. The note with it: remark: other sources report otherwise.

B1: hnRNPA1, endogenous, P09651 1-372 (natural protein)
chain: MSKSESPKEPEQLRKLFIGGLSFETTDESLRSHFEQWGTLTDCVVMRDPNTKRSRGFGFVTYATVEEVDAAMNARPHKVDGRVVEPKRAVSREDSQRPGAHLTVKKIFVGGIKEDTEEHHLRDYFEQYGKIEVIEIMTDRGSGKKRGFAFVTFDDHDSVDKIVIQKYHTVNGHNCEVRKALSKQEMASASSSQRGRSGSGNFGGGRGGGFGGNDNFGRGGNFSGRGGFGGSRGGGGYGGSGDGYNGFGNDGGYGGGGPGYSGGSRGYGSGGQGYGNQGSGYGGSGSYDSYNNGGGGGFGGGSGSNFGGGGSYNDFGNYNNQSSNFGPMKGGNFGGRSSGPYGGGGQYFAKPRNQGGYGGSSSSSSYGSGRRF
Turning to B1, the stoichiometry N was found to be 2.

Usually stoichiometry N stands for a count of units in the complex or per binding partner.
